B1: unnamed (protein)
chain 1: EVQLVQSGAEVKKPGESLRISCKGSGYTFSSYWISWVRQMPGKGLEWMGKIYPGDSYTNYSPSFQGQVTISADKSISTAYLQWSSLKASDTAMYYCTRGYGLFDYWGQGTLVTVSS
chain 2: SYELTQPPSVSVSPGQTASITCSGDNIGDQYAHWYQQKPGQSPVLVIYQDKNRPSGIPERFSGSNSGNTATLTISGTQAMDEADYYCATYTGFGSLAVFGGGTKLTVL
B2: unnamed (protein)
chain 1: EVQLVQSGAEVKKPGESLRISCKGSGYTFSNYWISWVRQMPGKGLEWMGKIYPGDSYTNYSPSFQGQVTISADKSISTAYLQWSSLKASDTAMYYCARGYGIFDYWGQGTLVTVSS
chain 2: SYELTQPPSVSVSPGQTASITCSGDNIGDQYAHWYQQKPGQSPVLVIYQDKNRPSGIPERFSGSNSGNTATLTISGTQAMDEADYYCATYTGFGSLAVFGGGTKLTVL
B3: unnamed (protein)
chain 1: EVQLVQSGAEVKKPGESLRISCKGSGYTFSDYWISWVRQMPGKGLEWMGKIYPGDSYTNYSPSFQGQVTISADKSISTAYLQWSSLKASDTAMYYCARGYGLFDYWGQGTLVTVSS
chain 2: SYELTQPPSVSVSPGQTASITCSGDNIGDQYAHWYQQKPGQSPVLVIYQDKNRPSGIPERFSGSNSGNTATLTISGTQAMDEADYYCATYTGFGSLAVFGGGTKLTVL
B4: unnamed (protein)
chain 1: EVQLVQSGAEVKKPGESLRISCKGSGYTFSDYWISWVRQMPGKGLEWMGKIYPGDSYTNYSPSFQGQVTISADKSISTAYLQWSSLKASDTAMYYCARGYGIFDYWGQGTLVTVSS
chain 2: SYELTQPPSVSVSPGQTASITCSGDNIGDQYAHWYQQKPGQSPVLVIYQDKNRPSGIPERFSGSNSGNTATLTISGTQAMDEADYYCATYTGFGSLAVFGGGTKLTVL
B5: unnamed (protein)
chain 1: EVQLVQSGAEVKKPGESLRISCKGSGYSFSSYWISWVRQMPGKGLEWMGKIYPGDSYTNYSPSFQGQVTISADKSISTAYLQWSSLKASDTAMYYCARGYGVFDYWGQGTLVTVSS
chain 2: SYELTQPPSVSVSPGQTASITCSGDNIGDQYAHWYQQKPGQSPVLVIYQDKNRPSGIPERFSGSNSGNTATLTISGTQAMDEADYYCATYTGFGSLAVFGGGTKLTVL
B6: unnamed (protein)
chain 1: EVQLVQSGAEVKKPGESLRISCKGSGYSFSSYWISWVRQMPGKGLEWMGKIYPGDSYTNYSPSFQGQVTISADKSISTAYLQWSSLKASDTAMYYCARGTGLFDYWGQGTLVTVSS
chain 2: SYELTQPPSVSVSPGQTASITCSGDNIGDQYAHWYQQKPGQSPVLVIYQDKNRPSGIPERFSGSNSGNTATLTISGTQAMDEADYYCATYTGFGSLAVFGGGTKLTVL
B7: unnamed (protein)
chain 1: EVQLVQSGAEVKKPGESLRISCKGSGYTFSNYWISWVRQMPGKGLEWMGKIYPGDSYTNYSPSFQGQVTISADKSISTAYLQWSSLKASDTAMYYCARGYGLFDYWGQGTLVTVSS
chain 2: SYELTQPPSVSVSPGQTASITCSGDNIGDQYAHWYQQKPGQSPVLVIYQDKNRPSGIPERFSGSNSGNTATLTISGTQAMDEADYYCATYTGFGSLAVFGGGTKLTVL
B8: unnamed (protein)
chain 1: EVQLVQSGAEVKKPGESLRISCKGSGYTFSSYWISWVRQMPGKGLEWMGKIYPGNSYTNYSPSFQGQVTISADKSISTAYLQWSSLKASDTAMYYCARGDGVFDYWGQGTLVTVSS
chain 2: SYELTQPPSVSVSPGQTASITCSGDNIGDQYAHWYQQKPGQSPVLVIYQDKNRPSGIPERFSGSNSGNTATLTISGTQAMDEADYYCATYTGFGSLAVFGGGTKLTVL
B9: unnamed (protein)
chain 1: EVQLVQSGAEVKKPGESLRISCKGSGYSFSNYWISWVRQMPGKGLEWMGKIYPGDSYTNYSPSFQGQVTISADKSISTAYLQWSSLKASDTAMYYCARGYGLFDYWGQGTLVTVSS
chain 2: SYELTQPPSVSVSPGQTASITCSGDNIGDQYAHWYQQKPGQSPVLVIYQDKNRPSGIPERFSGSNSGNTATLTISGTQAMDEADYYCATYTGFGSLAVFGGGTKLTVL
B10: unnamed (protein)
chain 1: EVQLVQSGAEVKKPGESLRISCKGSGYSFSSYWISWVRQMPGKGLEWMGKIYPGDSYTNYSPSFQGQVTISADKSISTAYLQWSSLKASDTAMYYCARGYGLFDYWGQGTLVTVSS
chain 2: SYELTQPPSVSVSPGQTASITCSGDNIGDQYAHWYQQKPGQSPVLVIYQDKNRPSGIPERFSGSNSGNTATLTISGTQAMDEADYYCATYTGFGSLAVFGGGTKLTVL
B11: unnamed (protein)
chain 1: EVQLVQSGAEVKKPGESLRISCKGSGYTFSSYWISWVRQMPGKGLEWMGKIYPGDSYTNYSPSFQGQVTISADKSISTAYLQWSSLKASDTAMYYCARGYGILDYWGQGTLVTVSS
chain 2: SYELTQPPSVSVSPGQTASITCSGDNIGDQYAHWYQQKPGQSPVLVIYQDKNRPSGIPERFSGSNSGNTATLTISGTQAMDEADYYCATYTGFGSLAVFGGGTKLTVL
B12: unnamed (protein)
chain 1: EVQLVQSGAEVKKPGESLRISCKGSGYTFSSYWISWVRQMPGKGLEWMGKIYPGDSYTNYSPSFQGQVTISADKSISTAYLQWSSLKASDTAMYYCARGYGIFDYWGQGTLVTVSS
chain 2: SYELTQPPSVSVSPGQTASITCSGDNIGDQYAHWYQQKPGQSPVLVIYQDKNRPSGIPERFSGSNSGNTATLTISGTQAMDEADYYCATYTGFGSLAVFGGGTKLTVL
B13: unnamed (protein)
chain 1: EVQLVQSGAEVKKPGESLRISCKGSGYTFSNYWISWVRQMPGKGLEWMGKIYPGDSYTNYSPSFQGQVTISADKSISTAYLQWSSLKASDTAMYYCARGEGLFDYWGQGTLVTVSS
chain 2: SYELTQPPSVSVSPGQTASITCSGDNIGDQYAHWYQQKPGQSPVLVIYQDKNRPSGIPERFSGSNSGNTATLTISGTQAMDEADYYCATYTGFGSLAVFGGGTKLTVL
B14: unnamed (protein)
chain 1: QMQLVESGGGVVQPGRSLRLSCAASGFTFRTYGMHWVRQAPGKGLEWVAVIWYDGSNKHYADSVKGRFTITRDNSKNTLNLQMNSLRAEDTAVYYCAREPPLFYSSWSLDNWGQGTMVTVSS
chain 2: SYVLTQPPSVSVAPGQTARITCGGNNLGSKSVHWYQQKPGQAPVLVVYDDSDRPSWIPERFSGSNSGNTATLTISRGEAGDEADYYCQVWDSSSDHVVFGGGTKLTVL
B15: unnamed (protein)
chain 1: QMQLVESGGGVVQPGRSLRLSCAASGFTFRTYGMHWVRQAPGKGLEWVAVIWYDGSNKHYADSVKGRFTITRDNSKNTLNLQMNSLRAEDTAVYYCARGPFSRYDYFAMDNWGQGTMVTVSS
chain 2: SYVLTQPPSVSVAPGQTARITCGGNNLGSKSVHWYQQKPGQAPVLVVYDDSDRPSWIPERFSGSNSGNTATLTISRGEAGDEADYYCQVWDSSSDHVVFGGGTKLTVL
B16: unnamed (protein)
chain 1: QMQLVESGGGVVQPGRSLRLSCAASGFTFRTYGMHWVRQAPGKGLEWVAVIWYDGSNKHYADSVKGRFTITRDNSKNTLNLQMNSLRAEDTAVYYCANLKDSRYSGSYYDYWGQGTMVTVSS
chain 2: SYVLTQPPSVSVAPGQTARITCGGNNLGSKSVHWYQQKPGQAPVLVVYDDSDRPSWIPERFSGSNSGNTATLTISRGEAGDEADYYCQVWDSSSDHVVFGGGTKLTVL
B17: unnamed (protein)
chain 1: QMQLVESGGGVVQPGRSLRLSCAASGFTFRTYGMHWVRQAPGKGLEWVAVIWYDGSNKHYADSVKGRFTITRDNSKNTLNLQMNSLRAEDTAVYYCVRGSITWPTEYYLDYWGQGTMVTVSS
chain 2: SYVLTQPPSVSVAPGQTARITCGGNNLGSKSVHWYQQKPGQAPVLVVYDDSDRPSWIPERFSGSNSGNTATLTISRGEAGDEADYYCQVWDSSSDHVVFGGGTKLTVL
B18: unnamed (protein)
chain 1: QMQLVESGGGVVQPGRSLRLSCAASGFTFRTYGMHWVRQAPGKGLEWVAVIWYDGSNKHYADSVKGRFTITRDNSKNTLNLQMNSLRAEDTAVYYCARPPYYYGTTYYFDYWGQGTMVTVSS
chain 2: SYVLTQPPSVSVAPGQTARITCGGNNLGSKSVHWYQQKPGQAPVLVVYDDSDRPSWIPERFSGSNSGNTATLTISRGEAGDEADYYCQVWDSSSDHVVFGGGTKLTVL
B19: unnamed (protein)
chain 1: QMQLVESGGGVVQPGRSLRLSCAASGFTFRTYGMHWVRQAPGKGLEWVAVIWYDGSNKHYADSVKGRFTITRDNSKNTLNLQMNSLRAEDTAVYYCARDESTGDYYYYMDVWGQGTMVTVSS
chain 2: SYVLTQPPSVSVAPGQTARITCGGNNLGSKSVHWYQQKPGQAPVLVVYDDSDRPSWIPERFSGSNSGNTATLTISRGEAGDEADYYCQVWDSSSDHVVFGGGTKLTVL

molecular target: TNFRSF9, Q07011; experiment: Kd (SPR)

Kd [nM]	Binder
109	B1
86.4	B2
84.1	B3
120	B4
228	B5
150	B6
117	B7
32.9	B8
145	B9
51.1	B10
59.4	B11
58.6	B12
51	B13

molecular target: TSLP, Q969D9; experiment: Kd (SPR)

Kd [nM]	Binder
0.203	B14
557	B15
523	B16
426	B17
300	B18
229	B19
